This note sets out measurements from patent CN115477698A (UNIV CHONGQING MEDICAL; FENG YULIN, dated 2022).

To fix the notation:
B1: 单抗16-CQTS061 (antibody, V domains shown)
VH: EVQLVESGGGLVQPGGSLRLSCAASGFTVISNYMSWVRQAPGKGLEWVSVIYRGGSTYFADSVKGRFTISRDNSKNTLYLQMNSLRAEDTAVYYCARLASDGSGSYLDYFDYWGQGTLVTVSS
VL: QSVLTQPPSVSGAPGQRVTISCTGSSSNIGADYDVHWYQQFPGTAPKLLIYGNSNRPSGVPDRFSGSKSGTSASLAITGLQAEDEADYYCQSYDSSLSGSWVFGGGTKLTVL
B2: 单抗18-CQTS063 (antibody, V domains shown)
VH: QVQLVQSGAEVKKPGSSVKVSCKASGGTFSSYAISWVRQAPGQGLEWMGGIIPIFGTANYAQKFQGRVTITADESTSTAYMELSSLRSEDTAVYYCATDGGGGSYYYAHYYYGMDVWGQGTTVTVSS
VL: QTVVTQEPSFSVSPGGTVTLTCGLSSGSVPTSYFPSWYQQTPGQAPRTLIYGTNTRSSGVPDRFSGSILGNKAALTITGAQADDESDYYCVLYMGSGIVVFGGGTKLTVL
B3: 单抗20-CQTS065 (antibody, V domains shown)
VH: EMQLVESGGGLVQPGGSLRLSCAASGFTFSTYEMNWVRQAPGKGLEWVSYISSSTNSIYYAGSVQGRFTISRGNAKNSLYLQMNSLRAEDTAVYYCARGRDDYGDYRGGDFDYWGQGTLVTVSS
VL: QIVLTQSPATLSLSPGERATLSCRASQSVTTYLAWYQQKPGQAPRLLIYDASHRATGIPARFSGSGSGTDFTLTISSLEPEDFAVYYCQQRSNWPPITFGPGTKVEIK
B4: 单抗17-CQTS062 (antibody, V domains shown)
VH: EVQLVESGGGLVQPGRSLRLSCAASGFTFDDYAMHWVRQAPGKGLEWVSGISWNSDSIGYADSVKGRFTISRDNAKNSLYLQMNSLRAEDTALYYCAKDLSSGWDLFDYWGQGTLVTVSS
VL: SYVLTQPPSVSVAPGKTARITCGGNNIGSKSVHWYQQKPGQAPVLVIYYDSDRPSGIPERFSGSNSGNTATLSISRVEAGDEAGYYCQVWDTSGDPLVFGGGTKLTVL
B5: 单抗14-CQTS058 (antibody, V domains shown)
VH: EVQLVESGGGLVQPGRSLRLSCAASGFTFDDYAMHWVRQAPGKGLEWVSGISWSSGSIVYADSVKGRFTVSRDNAKNSLYLQMNSLRVEDTAFYYCAKDMVAGPHYYGMDVWGQGTTVTVSS
VL: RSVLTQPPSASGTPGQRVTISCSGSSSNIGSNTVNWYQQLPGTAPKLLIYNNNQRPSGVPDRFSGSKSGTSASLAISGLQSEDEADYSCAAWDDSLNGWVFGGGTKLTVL
B6: 单抗19-CQTS064 (antibody, V domains shown)
VH: EVQLVQSGAEVKKPGESLKISCEGSGYSFISYWIGWVRQMPGKGLEWMGIIYPGDSDTRYSPSFQGQVTISADRSISTAYLQWSSLKASDTAMYYCVRSDGDYVIGHDYWGQGTLVTVSS
VL: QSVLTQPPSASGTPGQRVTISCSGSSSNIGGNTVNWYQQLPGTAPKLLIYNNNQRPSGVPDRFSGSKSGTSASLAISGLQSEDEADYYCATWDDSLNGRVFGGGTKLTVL
B7: 单抗12-CQTS056 (antibody, V domains shown)
VH: EVQLVQSGAEVKKPGESLKISCQGSGFSFSNYWIGWVRQMPGKGLEWMGIIYPDDSDTRYSPSFQGQVTISADKSISTAFLQWSSLKASDTAMYYCATRTGWTNDAFDIWGQGTMVTVSS
VL: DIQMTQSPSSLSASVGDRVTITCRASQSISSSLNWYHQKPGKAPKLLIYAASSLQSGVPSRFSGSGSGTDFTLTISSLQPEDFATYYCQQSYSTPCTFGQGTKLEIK
B8: 单抗11-CQTS055 (antibody, V domains shown)
VH: EVQLVESGGGLVQPGGSLRLSCAASGFTFSNYDMHWVRQGTGKGLEWVSAIGTAGDTYYPGSVKGRFTISRENAKNSLYLQMNSLRAGDTALYYCARVGYYGSGSYPLYWYFDLWGRGTLVTVSS
VL: DIQMTPSPSSLSASVGDRVTITCRASQSISIYLNWYQQKPGKAPKLLIYAASNLQSGVPSRFSGSGSGTEFTLTISSLQPEDFATYFCQQSYSAPPWTFGQGTRVEIR
notes: also called 实施例1的新冠病毒RBD特异性单克隆抗体
B9: 单抗15-CQTS059 (antibody, V domains shown)
VH: EVQLVQSGAEVKKPGESLKISCKASGYRFTNYWTVWVRQMPGKGLEWMGIIYPGDSEIRYSPPFQGQVTISADKSISTAYLQWSSLKASDTAMYYCARHPSNFYDSGGDYYAMDVWGQGTPVTVSS
VL: QSALTQPASVSGSPGQSITISCTGTSSNVGNYDLVSWYQQHPGKAPKLMIYEVNKRPSGVSDRFSGSKSGNTASLTISGLQAEDEADFYCCSYAGSSSWVFGGGTKVTVL
B10: 单抗13-CQTS057 (antibody, V domains shown)
VH: QVTLRESGPALVKPTQTLTLTCTFSGFSLSTSGMCVSWIRQPPGKALEWLARIDWDDDKYYSTSLRTRLTISKDTSKNLVVLTMTNMDPVDTATYYCALGRAGTMDYWGQGTLVTVSS
VL: DIQMTQSPSSLSASVGDRVTITCRASQSIRSYLNWYQQKPGKAPKVLIYAASSLQSGVPSRFSGSGSGTDFTLTISSLQPGDFATYYCQQSYSPPYTFGQGTKLEIK

This assay deals with SARS-COV-2RBD (SARS-CoV-2, UniProt P0DTC2 319-541). The assay can be described thus: ELISA, RBD coated at 2 μg/mL, 293T transfection supernatant, anti-human IgG-ALP detection.
For the molecule B1, the binding result is “binds”.
For B2, the binding result was “binds”.
As for B3, the binding result was “binds”.
Take B4: the binding result is on record as “binds”.
B5: the binding result is given as “binds”.
Under B6 stands “binds”; under B7, “binds”.
Under B8 stands “binds”; under B9, “binds”.
With B10 the entry was “binds”.
